Results as given in patent US20190111164A1 (Boehringer Ingelheim, published 2019).
* marks the point of attachment. αGalNAc = CC(=O)N[C@@H]1[C@@H](O)[C@@H](O)[C@@H](CO)O[C@@H]1*

T1: B-MUC2 (SMILES …)
T1 construct: also called Ac-PTT*TPLK-NH2
T1 peptide: Ac-PTT(αGalNAc)TPLK-NH2

T2: E-MUC2 (SMILES …)
T2 construct: also called Ac-PT*TT*PLK-NH2
T2 peptide: Ac-PT(αGalNAc)TT(αGalNAc)PLK-NH2

T3: a-Dystroglycan peptide (no Tn)
T3 construct: Unmodified control of the a-Dystroglycan glycopeptide
T3 peptide: Ac-PPTTTTKKP-NH2

T4: IgA-Pep16 (SMILES …)
T4 peptide: H-KPSTPPTPS(αGalNAc)PSC-OH

T5: MUC5AC (SMILES …)
T5 peptide: H-GTTPSPVPT(αGalNAc)TSTTSAP-OH

T6: F-MUC2 (SMILES …)
T6 construct: also called Ac-PTT*T*PLK-NH2
T6 peptide: Ac-PTT(αGalNAc)T(αGalNAc)PLK-NH2

T7: D-MUC2 (SMILES …)
T7 construct: also called Ac-PT*T*TPLK-NH2
T7 peptide: Ac-PT(αGalNAc)T(αGalNAc)TPLK-NH2

T8: EA2-R
T8 peptide: Ac-PTTDSTTPAPTTK-NH2

T9: EA2 (SMILES …)
T9 construct: also called Ac-PTTDSTT*PAPTTK-NH2
T9 peptide: Ac-PTTDSTT(αGalNAc)PAPTTK-NH2

T10: IgA-Pep02
T10 peptide: H-KPVPSTPPTPSC-OH

T11: Peptide-4
T11 construct: also called H2N-KTTT-CONH2
T11 peptide: H-KTTT-NH2

T12: MUC1-2 (SMILES …)
T12 construct: also called H2N-APGS*T*APP-NH2
T12 peptide: H-APGS(αGalNAc)T(αGalNAc)APP-NH2

T13: Peptide-5
T13 construct: also called H2N-KTTTG-CONH2
T13 peptide: H-KTTTG-NH2

T14: IgA-Pep07
T14 peptide: H-KTPPTPSPSTPC-OH

T15: a-Dystroglycan glycopeptide (four Tn) (SMILES …)
T15 construct: also called Ac-PPT*T*T*T*KKP-HN2
T15 peptide: Ac-PPT(αGalNAc)T(αGalNAc)T(αGalNAc)T(αGalNAc)KKP-NH2

T16: IgA-Pep10
T16 peptide: H-KPSPSTPPTPSC-OH

T17: MUC1-2R
T17 peptide: H-APGSTAPP-NH2

T18: A-MUC2 (SMILES …)
T18 construct: also called Ac-PT*TTPLK-NH2
T18 peptide: Ac-PT(αGalNAc)TTPLK-NH2

T19: MUC1-1R
T19 peptide: H-TSAPDTRDAP-NH2

T20: C-MUC2 (SMILES …)
T20 construct: also called Ac-PTTT*PLK-NH2
T20 peptide: Ac-PTTT(αGalNAc)PLK-NH2

T21: IgA-Pep08 (SMILES …)
T21 peptide: H-KTPPTPSPST(αGalNAc)PC-OH

T22: IgA-Pep18 (SMILES …)
T22 peptide: H-KPST(αGalNAc)PPTPSPSC-OH

T23: IgA-Pep03 (SMILES …)
T23 construct: also called H2N-KPVPS*TPPTPSC-OH
T23 peptide: H-KPVPS(αGalNAc)TPPTPSC-OH

T24: IgA-Pep13 (SMILES …)
T24 construct: also called H2N-KPS*TPPT*PSPSC-OH
T24 peptide: H-KPS(αGalNAc)TPPT(αGalNAc)PSPSC-OH

T25: G-MUC2 (SMILES …)
T25 construct: also called Ac-PT*T*T*PLK-NH2
T25 peptide: Ac-PT(αGalNAc)T(αGalNAc)T(αGalNAc)PLK-NH2

T26: MUC1-1 (SMILES …)
T26 construct: also called H2N-TSAPDT*RDAP-NH2
T26 peptide: H-TSAPDT(αGalNAc)RDAP-NH2

T27: IgA-Pep05
T27 construct: also called IgA-Pep12; IgA-Pep14
T27 peptide: H-KPSTPPTPSPSC-OH

B1: 2F3 parent antibody (antibody, V domains shown)
VH: QITLRESGGGLVQPGGSLRLSCAASGFTFDSYAMSWVRQAPGKGLEWVSAISGSGDSTYYADSVKGRFSISRDNSKNTLYLQMNSLRAEDTAVYYCAIRREYSGYAPFDYWGQGTLVTVSS
VL: DIVMTQTPSSLSASVGDRVTITCRASQGISSWLAWYQQKPEKAPRSLIYAASSLQSGVPSRFSGSGSGTDFTLTISSLQPEDFATYYCQQYISYPYTFGQGTKLEIK
notes: Only variable domains are used here; V genes were cloned into human IgG1 (or IgG3)/kappa; also called 2F3 Original; original 2F3 parent
B2: 2F3 variant #17v2 (antibody, IgG1, V domains shown)
VH: QITLRESGGGLVQPGGSLRLSCAASGFTFDSYAMSWVRQAPGKGLEWVSAISGSGHSTYYADSVKGRFSISRDNSKNTLYLQMNNLRAEDTAVYYCAIRREYSGYAPFDYWGQGTLVTVSS
VL: DIVMTQTPSSLSASVGDRVTITCRASQGISSWLAWYQQKPEKAPRSLIYAASSLQSGVPSRFSGSGSGTDFTLTISSLQPEDFATYYCQQYISYPYTFGQGTKLEIK
notes: IgG1, kappa, wild type 2F3 light chain; also called 2F3#17V2; 2F3#17v2
B3: 2F3 variant #6 (antibody, IgG1, V domains shown)
VH: QVQLLESGGGLVQPGGSLRLSCAASGFTFDSYAMSWVRQAPGKGLEWVSAISGSGASTYYADSVKGRFSISRDNSKNTLYLQMNSLRAEDTAVYYCAIRREYSGYAPFDYWGQGTLVIVSS
VL: DIVMTQTPSSLSASVGDRVTITCRASQGISSWLAWYQQKPEKAPRSLIYAASSLQSGVPSRFSGSGSGTDFTLTISSLQPEDFATYYCQQYISYPYTFGQGTKLEIK
notes: Mutant heavy chain in an IgG expression vector, co-expressed with the wild type 2F3 light chain (IgG1, kappa); also called 2F3#6; clone 6

Assays:
B-MUC2 = molecular target: T1, B-MUC2; assay: glycopeptide microarray, antibody at 50 ug/mL
Experimental: (§1) With concentrations adjusted to 100 μM in printing buffer (300 mM sodium phosphates, pH 8.5), 0.33 nL of each solution was spotted using a piezoelectric printer. The microarray was printed in spot replicates of 6. Arrays were interrogated with monoclonal anti-Tn antibodies 2F3 parent, 2F3V variant 6, or 2F3 variant 17-2 and detected with fluorescently labeled secondary antibodies and streptavidin as noted. Scanning and quantification were performed with ProScanArray scanner and ScanArray Express software (Perkin-Elmer). The assay examined a panel of ˜50 Tn glycopeptides and addressed whether spacing, number of Tn modifications, specific residues modified, or sequence context contributed to the specificity of binding by 2F3. […] Ser-Tn near free termini and multiple Ser-Tn in a single peptide increased binding. Using the 2F3 parent antibody (“parent”), Variant 6 and Variant 17, the binding of the antibodies to a panel of different glycoproteins was assayed to determine the preferred Tn context recognized by 2F3 and the 2F3G1 variants. […] Importantly, modification to Thr residues gave rise to little to no binding. […] Furthermore, binding was observed not only to peptides that contained Ser-Tn, but specifically those that were at least 5 amino acids from the attachment point to the solid matrix. Ser-Tn near free termini and multiple Ser-Tn in a single peptide increased binding.
(§2) The antibodies were applied to glycopeptide arrays at a concentration of 5 ug/mL (no data shown form this group) or 50 ug/mL (data shown in bar chart and in the table 9).

E-MUC2 = molecular target: T2, E-MUC2; assay: glycopeptide microarray, antibody at 50 ug/mL
Experimental: as §1, §2

[1] = molecular target: T3, a-Dystroglycan peptide (no Tn); assay: glycopeptide microarray, antibody at 50 ug/mL
Experimental: as §1, §2

IgA-Pep16 = molecular target: T4, IgA-Pep16; assay: glycopeptide microarray, antibody at 50 ug/mL
Experimental: as §1, §2

MUC5AC = molecular target: T5, MUC5AC; assay: glycopeptide microarray, antibody at 50 ug/mL
Experimental: as §1, §2

F-MUC2 = molecular target: T6, F-MUC2; assay: glycopeptide microarray, antibody at 50 ug/mL
Experimental: as §1, §2

D-MUC2 = molecular target: T7, D-MUC2; assay: glycopeptide microarray, antibody at 50 ug/mL
Experimental: as §1, §2

EA2-R = molecular target: T8, EA2-R; assay: glycopeptide microarray, antibody at 50 ug/mL
Experimental: as §1, §2

EA2 = molecular target: T9, EA2; assay: glycopeptide microarray, antibody at 50 ug/mL
Experimental: as §1, §2

IgA-Pep02 = molecular target: T10, IgA-Pep02; assay: glycopeptide microarray, antibody at 50 ug/mL
Experimental: as §1, §2

Peptide-4 = molecular target: T11, Peptide-4; assay: glycopeptide microarray, antibody at 50 ug/mL
Experimental: as §1, §2

MUC1-2 = molecular target: T12, MUC1-2; assay: glycopeptide microarray, antibody at 50 ug/mL
Experimental: as §1, §2

Peptide-5 = molecular target: T13, Peptide-5; assay: glycopeptide microarray, antibody at 50 ug/mL
Experimental: as §1, §2

IgA-Pep07 = molecular target: T14, IgA-Pep07; assay: glycopeptide microarray, antibody at 50 ug/mL
Experimental: as §1, §2

[2] = molecular target: T15, a-Dystroglycan glycopeptide (four Tn); assay: glycopeptide microarray, antibody at 50 ug/mL
Experimental: as §1, §2

IgA-Pep10 = molecular target: T16, IgA-Pep10; assay: glycopeptide microarray, antibody at 50 ug/mL
Experimental: as §1, §2

MUC1-2R = molecular target: T17, MUC1-2R; assay: glycopeptide microarray, antibody at 50 ug/mL
Experimental: as §1, §2

A-MUC2 = molecular target: T18, A-MUC2; assay: glycopeptide microarray, antibody at 50 ug/mL
Experimental: as §1, §2

MUC1-1R = molecular target: T19, MUC1-1R; assay: glycopeptide microarray, antibody at 50 ug/mL
Experimental: as §1, §2

C-MUC2 = molecular target: T20, C-MUC2; assay: glycopeptide microarray, antibody at 50 ug/mL
Experimental: as §1, §2

IgA-Pep08 = molecular target: T21, IgA-Pep08; assay: glycopeptide microarray, antibody at 50 ug/mL
Experimental: as §1, §2

IgA-Pep18 = molecular target: T22, IgA-Pep18; assay: glycopeptide microarray, antibody at 50 ug/mL
Experimental: as §1, §2

IgA-Pep03 = molecular target: T23, IgA-Pep03; assay: glycopeptide microarray, antibody at 50 ug/mL
Experimental: as §1, §2

IgA-Pep13 = molecular target: T24, IgA-Pep13; assay: glycopeptide microarray, antibody at 50 ug/mL
Experimental: as §1, §2

G-MUC2 = molecular target: T25, G-MUC2; assay: glycopeptide microarray, antibody at 50 ug/mL
Experimental: as §1, §2

MUC1-1 = molecular target: T26, MUC1-1; assay: glycopeptide microarray, antibody at 50 ug/mL
Experimental: as §1, §2

IgA-Pep05 [3] = molecular target: T27, IgA-Pep05; assay: glycopeptide microarray, antibody at 50 ug/mL; spot IgA-Pep12
Experimental: as §1, §2

IgA-Pep05 [4] = molecular target: T27, IgA-Pep05; assay: glycopeptide microarray, antibody at 50 ug/mL; spot IgA-Pep05
Experimental: as §1, §2

IgA-Pep05 [5] = molecular target: T27, IgA-Pep05; assay: glycopeptide microarray, antibody at 50 ug/mL; spot IgA-Pep14
Experimental: as §1, §2

Binder	RLU (E-MUC2) [RLU]	RLU [1] [RLU]	RLU (MUC5AC) [RLU]	RLU (F-MUC2) [RLU]	RLU (EA2-R) [RLU]	RLU (EA2) [RLU]	RLU (IgA-Pep02) [RLU]	RLU (Peptide-4) [RLU]	RLU (Peptide-5) [RLU]	RLU (IgA-Pep07) [RLU]	RLU [2] [RLU]	RLU (IgA-Pep10) [RLU]	RLU (MUC1-2R) [RLU]	RLU (A-MUC2) [RLU]	RLU (MUC1-1R) [RLU]	RLU (C-MUC2) [RLU]	RLU (IgA-Pep08) [RLU]	RLU (IgA-Pep18) [RLU]	RLU (G-MUC2) [RLU]	RLU (MUC1-1) [RLU]	further results
B1	8	37	23	11	15	11	26	7	10	20	24	19	4	45	7	9	22	16	10	11	RLU (B-MUC2): 19 RLU; RLU (IgA-Pep16): 115 RLU; RLU (D-MUC2): 12 RLU; RLU (MUC1-2): 33 RLU; RLU (IgA-Pep03): 58 RLU; RLU (IgA-Pep13): 40 RLU; RLU (IgA-Pep05 [3]): 20 RLU; RLU (IgA-Pep05 [4]): 28 RLU; RLU (IgA-Pep05 [5]): 43 RLU
B2	87	86	87	70	29	16	75	33	41	144	51	125	6	65	19	30	282	174	51	61	RLU (IgA-Pep05 [3]): 457 RLU; RLU (IgA-Pep05 [4]): 149 RLU; RLU (IgA-Pep05 [5]): 112 RLU
B3	27	-4	-14	54	45	18	35	31	-6	30	28	-127	0	55	7	22	-6	22	-39	14	RLU (B-MUC2): 23 RLU; RLU (D-MUC2): 12 RLU; RLU (MUC1-2): 59 RLU; RLU (IgA-Pep05 [3]): 83 RLU; RLU (IgA-Pep05 [4]): 60 RLU; RLU (IgA-Pep05 [5]): 38 RLU
